Results on 2 molecules are retold here after US7919091B2, “Lipolysis stimulated receptor (LSR) specific antibodies” (Serono Genetics Institute S.A., priority 1997, dated 2011).

For one test, the target named is T1, LSR (Rattus norvegicus, UniProt Q9WU74).
T1 construct: from tissue; host or cells: rat liver plasma membranes / solubilized rat liver membrane proteins
T1 sequence (Q9WU74 36-593): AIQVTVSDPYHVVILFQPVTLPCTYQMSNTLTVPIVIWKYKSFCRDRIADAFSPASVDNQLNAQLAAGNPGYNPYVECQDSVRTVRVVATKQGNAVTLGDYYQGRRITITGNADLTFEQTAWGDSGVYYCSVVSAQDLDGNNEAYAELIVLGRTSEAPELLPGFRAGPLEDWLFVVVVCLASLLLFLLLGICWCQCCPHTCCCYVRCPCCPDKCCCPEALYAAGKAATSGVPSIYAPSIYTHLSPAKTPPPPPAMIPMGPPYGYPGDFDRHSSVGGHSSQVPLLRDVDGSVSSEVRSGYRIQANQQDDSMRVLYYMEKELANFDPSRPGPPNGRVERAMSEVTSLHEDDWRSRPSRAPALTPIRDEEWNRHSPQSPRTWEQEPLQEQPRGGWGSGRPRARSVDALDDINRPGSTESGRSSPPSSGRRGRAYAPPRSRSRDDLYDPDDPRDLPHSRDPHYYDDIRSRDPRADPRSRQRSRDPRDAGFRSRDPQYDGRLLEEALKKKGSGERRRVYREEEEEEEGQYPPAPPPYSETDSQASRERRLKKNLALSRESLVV
T1 sequence (Q9WU74 36-525 isoform Q9WU74-3 limits assumed): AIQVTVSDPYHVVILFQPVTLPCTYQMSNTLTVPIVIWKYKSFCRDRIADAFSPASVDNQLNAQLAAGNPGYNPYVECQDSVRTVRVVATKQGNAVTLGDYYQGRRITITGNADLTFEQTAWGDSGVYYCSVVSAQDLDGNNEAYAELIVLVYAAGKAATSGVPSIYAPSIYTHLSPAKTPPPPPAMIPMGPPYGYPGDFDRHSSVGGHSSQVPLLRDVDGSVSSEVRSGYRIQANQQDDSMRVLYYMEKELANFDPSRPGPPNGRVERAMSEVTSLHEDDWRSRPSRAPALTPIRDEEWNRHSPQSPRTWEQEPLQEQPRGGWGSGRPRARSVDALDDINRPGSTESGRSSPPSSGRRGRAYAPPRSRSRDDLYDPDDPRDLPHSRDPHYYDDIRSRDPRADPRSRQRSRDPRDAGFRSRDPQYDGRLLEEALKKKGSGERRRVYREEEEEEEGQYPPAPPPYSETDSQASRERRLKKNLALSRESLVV
Description: Effect of AdipoQ on LSR activity in primary culture of rat hepatocytes. It counts as cell-based. The conditions noted are these: 25 ng/ml AdipoQ, in the presence of oleate. Here is the method:
Primary cultures of rat hepatocytes were prepared and distributed into 6-well plates (9000,000 cells/well). After 48 h, the cells were washed once with PBS (2 ml/well) and incubated for 30 min at 37° C. with 20 ng/ml of recombinant murine leptin. The cells were then incubated for 4 h at 37° C. with increasing concentrations of recombinant murine AdipoQ proteins and 20 μg/ml ^125I-LDL in the presence or in the absence of 0.5 mM oleate. The binding, internalization and degradation of lipoproteins were measured as indicated in Example 1.

Test [1] in a line: Postprandial lipemic response in rats after AdipoQ injection. It is filed as in vivo, rat. The conditions noted are these: high-fat meal, 1 mg AdipoQ i.v. The protocol:
Male Sprague-Dawley rats (400-450 g), starved since the day before, were force-fed with a meal which was very high in fat (t=0) (60% fatty acid of which 37% saturated, 27% monounsaturated and 36% polyunsaturated, 20% protein and 20% carbohydrate, the total providing 56 kcal/kg of body weight) and received immediately afterwards an intravenous injection (femoral vein) of either 300 μl of PBS alone or of the same volume containing 1 mg of mouse recombinant AdipoQ protein. Blood samples were collected at various times (0, 2, 4 and 6 h). The quantity of plasma triglycerides was measured using an enzymatic kit. The results are presented as mean values and standard deviations on 3 animals.

Test [2] can be described thus: Change in weight and plasma triglycerides in rats under AdipoQ infusion. It is filed as in vivo, rat. The conditions noted are these: 3-day ip infusion. Here is the method:
Osmotic pumps were surgically inserted into the abdominal cavities of 12 Sprague-Dawley male rats of 400-450 g. The osmotic pumps contained either 2 ml of PBS (phosphate buffered saline), pH 7.4 (control 6 rats), or 2 ml of recombinant AdipoQ protein (5 mg/ml PBS, 6 rats). These pumps were designed to deliver 10 μl/h (50 μg AdipoQ/h). The animals are weighed and individually housed in metabolic cages. 3 animals in each group are subjected ad libitum either to a normal diet or to a fatty diet (day 0). The fatty diet consists of a normal diet supplemented with 2% (w/w) cholesterol, 10% (w/w) saturated fatty acid in the form of vegetaline, [lacuna] % (w/w) sunflower oil and 15% (w/w) sucrose. On day 3, the animals are weighed and blood samples are obtained from the caudal vein. The quantity of plasma triglycerides was measured using an enzymatic kit.

Test [3] is described as follows: Food intake in ob/ob and db/db mice under AdipoQ. It is filed as in vivo. The conditions noted are these: ob/ob and db/db obese mice, 100 μg daily for 5 days. Here is the method: Recombinant AdipoQ protein (100 μg) or PBS alone were injected daily for 5 days through the caudal vein of ob/ob or db/db mice kept in a metabolic cage. The mice are weighed each day and the quantity of food consumed was also measured. The results correspond to a mean food intake and a standard deviation for 4 mice in each group.

Test [4] can be described thus: Postprandial lipemic response in mice after a high-fat meal. It is filed as in vivo. The conditions noted are these: ob/ob mice, 2.5 mg lactoferrin with 0.5 μg leptin i.v. The protocol: Control, ob/ob and db/db mice, starved since the day before, are force-fed with a meal which is very high in fat [60% fat (37% saturated, 27% monounsaturated and 36% polyunsaturated fatty acids), 20% protein and 20% carbohydrate] providing 56 kcal of energy/kg of the weight of the animal. Immediately after the meal (time=0 hour), the mice are injected intravenously with 200 μl of physiological saline solution. At various times, 20 μl of blood are collected via the caudal vein in tubes containing 90 μg of disodium EDTA, and after separating the plasma by centrifugation, the plasma concentration of triglyceridemia is determined with the aid of an enzymatic assay kit. Each point on the curves presented corresponds to the mean with standard deviation obtained for 3 measurements per animal and for 3 different animals.
The procedure is the same as above, except that immediately after the meal (time=0 hour), the mice are injected intravenously with either 200 μl of physiological saline solution, or 200 μl of the same solution containing 50 μg of murine recombinant leptin.
ob/ob mice, starved since the day before, are force-fed with a meal identical to that described above. […] Blood is collected between 2 and 3 hours after the meal and the plasma concentration of triglycerides (TG) is measured. […]

B1: AdipoQ: mouse recombinant AdipoQ protein with hexahistidine peptide, expressed in E. coli; homologue of complement C1q (protein)
chain: SHAEDDVTTTEELAPALVPPPKGTCAGWMAGIPGHPGHNGTPGRDGRDGTPGEKGEKGDAGLLGPKGETGDVGMTGAEGPRGFPGTPGRKGEPGEAAYVYRSAFSVGLETRVTVPNVPIRFTKIFYNQQNHYDGSTGKFYCNIPGLYYFSYHITVYMKDVKVSLFKKDKAVLFTYDQYQEKNVDQASGSVLLHLEVGDQVWLQVYGDGDHNGLYADNVNDSTFTGFLLYHDTN
modifications: left off: small tags and cut ends
notes: mouse recombinant AdipoQ protein with hexahistidine peptide, expressed in E. coli; homologue of complement C1q
Consider B1, for which the LSR activity entry with LSR is reported as “increases”. Besides, the postprandial lipemic response result in test [1] is on record as “massively reduce”. In addition, the “level of plasma triglycerides” value in test [2] was “reduced”. For the same molecule, the weight result in test [2] (normal or fatty diet) is reported as “loss in weight”. In addition, the food intake result in test [3] is given as “reduces”.

B2: lactoferrin: human lactoferrin (Serva), blocks the activity of LSR (protein, UniProt P02788 20-710, looked up)
Lactotransferrin: GRRRSVQWCAVSQPEATKCFQWQRNMRKVRGPPVSCIKRDSPIQCIQAIAENRADAVTLDGGFIYEAGLAPYKLRPVAAEVYGTERQPRTHYYAVAVVKKGGSFQLNELQGLKSCHTGLRRTAGWNVPIGTLRPFLNWTGPPEPIEAAVARFFSASCVPGADKGQFPNLCRLCAGTGENKCAFSSQEPYFSYSGAFKCLRDGAGDVAFIRESTVFEDLSDEAERDEYELLCPDNTRKPVDKFKDCHLARVPSHAVVARSVNGKEDAIWNLLRQAQEKFGKDKSPKFQLFGSPSGQKDLLFKDSAIGFSRVPPRIDSGLYLGSGYFTAIQNLRKSEEEVAARRARVVWCAVGEQELRKCNQWSGLSEGSVTCSSASTTEDCIALVLKGEADAMSLDGGYVYTAGKCGLVPVLAENYKSQQSSDPDPNCVDRPVEGYLAVAVVRRSDTSLTWNSVKGKKSCHTAVDRTAGWNIPMGLLFNQTGSCKFDEYFSQSCAPGSDPRSNLCALCIGDEQGENKCVPNSNERYYGYTGAFRCLAENAGDVAFVKDVTVLQNTDGNNNEAWAKDLKLADFALLCLDGKRKPVTEARSCHLAMAPNHAVVSRMDKVERLKQVLLHQQAKFGRNGSDCPDKFCLFQSETKNLLFNDNTECLARLHGKTTYEKYLGPQYVAGITNLKKCSTSPLLEACEFLRK
For the molecule B2, in test [4], the “reduction in the lipemic response induced by leptin” value is “suppressed”.
